The results in this text go back to US20140178332A1 (published 2014).

Assay [1] addresses T1, recombinant purified human IL-12 p70 (human, UniProt P29459 23-219).
T1 sequence 1: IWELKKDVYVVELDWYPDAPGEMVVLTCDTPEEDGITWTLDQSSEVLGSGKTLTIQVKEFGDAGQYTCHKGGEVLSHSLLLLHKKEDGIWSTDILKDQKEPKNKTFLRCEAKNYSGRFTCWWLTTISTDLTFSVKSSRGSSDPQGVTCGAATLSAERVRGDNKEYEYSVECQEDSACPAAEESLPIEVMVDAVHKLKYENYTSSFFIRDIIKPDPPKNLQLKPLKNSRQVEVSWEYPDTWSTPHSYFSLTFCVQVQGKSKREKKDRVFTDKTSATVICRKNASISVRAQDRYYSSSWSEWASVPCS
T1 sequence 2: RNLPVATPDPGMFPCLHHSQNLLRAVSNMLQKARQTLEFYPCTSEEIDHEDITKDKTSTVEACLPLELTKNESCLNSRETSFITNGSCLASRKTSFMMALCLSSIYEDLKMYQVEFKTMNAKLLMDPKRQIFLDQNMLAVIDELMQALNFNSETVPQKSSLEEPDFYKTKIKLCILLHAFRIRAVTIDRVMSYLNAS
The assay can be described thus: cell-based or functional assay.

The target in assay [2] is T2, recombinant purified cyno IL-12 p70 (cynomolgus monkey).
T2 chain 1: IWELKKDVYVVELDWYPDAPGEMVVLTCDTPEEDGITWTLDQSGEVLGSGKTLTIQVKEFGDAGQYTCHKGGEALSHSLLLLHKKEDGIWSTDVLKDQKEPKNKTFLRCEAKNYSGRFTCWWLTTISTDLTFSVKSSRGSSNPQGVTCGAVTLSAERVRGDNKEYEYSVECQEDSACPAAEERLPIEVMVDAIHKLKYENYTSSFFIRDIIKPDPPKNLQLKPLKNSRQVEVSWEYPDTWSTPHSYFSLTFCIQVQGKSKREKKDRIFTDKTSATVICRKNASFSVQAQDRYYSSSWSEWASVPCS
T2 chain 2: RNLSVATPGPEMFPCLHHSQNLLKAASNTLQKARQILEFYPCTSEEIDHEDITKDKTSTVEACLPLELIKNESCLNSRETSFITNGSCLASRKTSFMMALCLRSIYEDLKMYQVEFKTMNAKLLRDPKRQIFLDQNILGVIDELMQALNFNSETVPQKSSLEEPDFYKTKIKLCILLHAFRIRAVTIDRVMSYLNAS
Put plainly: cell-based or functional assay.

Assay [3] addresses T1, recombinant purified human IL-12 p70. The assay can be described thus: competition ELISA on coated human IL-12, competitor of 0.8 µg/ml biotinylated 8E1, average. As to the method: MaxiSorp ELISA plates (Nalge Nunc International) were coated overnight at 4° C. with 100 μl/well of 1.0 μg/ml human IL-12 in 0.2 M sodium carbonate-bicarbonate buffer, pH 9.4, washed with Wash Buffer (PBS containing 0.1% Tween 20), and blocked for 1 hr at room temperature with 300 μl/well of SuperBlock Blocking Buffer in TBS (Pierce Chemical Company). […] As isotype controls, 100 μl/well of 100 μg/ml mouse IgG 1/κ (MuFd79) or humanized IgG1/κ (HuFd79) monoclonal antibodies in ELISA buffer was used. As a no-competitor control, 100 μl/well of ELISA Buffer was used. After incubating the plates for 1 hr at room temperature, and washing with Wash Buffer, bound antibodies were detected using 100 μl/well of 1 μg/ml HRP-conjugated streptavidin (Pierce Chemical Company) in ELISA buffer. After incubating for 1 hr at room temperature, and washing with Wash Buffer, color development was performed by adding 100 μl/well of ABTS Peroxidase Substrate/Peroxidase Solution B (KPL, Inc.). After incubating for 5 min at room temperature, color development was stopped by adding 50 μl/well of 2% oxalic acid. Absorbance was read at 415 nm.
The affinity of 8E1.4, 8E1.5 and 8E1.6 to human IL-12 was analyzed by competition ELISA as described above.

In assay [4] the target is T3, recombinant purified mouse IL-12 (Peprotech) (mouse, UniProt P43432 23-335; P43431 23-215).
T3 construct: Bought reagent; also called mu IL-12; murine IL-12
T3 sequence (looked up) 1: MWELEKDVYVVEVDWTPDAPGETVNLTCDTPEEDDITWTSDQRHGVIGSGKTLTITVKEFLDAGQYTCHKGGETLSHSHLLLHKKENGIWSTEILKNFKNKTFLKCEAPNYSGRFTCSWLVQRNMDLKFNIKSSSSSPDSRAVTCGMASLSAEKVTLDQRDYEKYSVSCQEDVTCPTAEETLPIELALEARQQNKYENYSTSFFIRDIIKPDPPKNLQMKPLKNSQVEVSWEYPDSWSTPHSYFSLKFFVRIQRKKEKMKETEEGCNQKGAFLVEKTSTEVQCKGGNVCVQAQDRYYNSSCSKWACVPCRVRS
T3 sequence (looked up) 2: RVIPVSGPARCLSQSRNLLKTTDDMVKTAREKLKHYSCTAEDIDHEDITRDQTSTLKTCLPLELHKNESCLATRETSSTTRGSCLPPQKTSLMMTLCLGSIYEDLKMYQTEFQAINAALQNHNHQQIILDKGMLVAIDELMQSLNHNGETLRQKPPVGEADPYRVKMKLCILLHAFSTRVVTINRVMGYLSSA
Put plainly: indirect ELISA, mAb captured on anti-mouse IgG Fc, mouse IL-12 at 0.2 ug/ml. The procedure:
Second, an indirect ELISA was set up by coating ELISA plates with 5 ug/ml of goat anti-mouse IgG, Fc fragment specific antibody (Pierce #31170, Rockland, Ill.). Murine anti-human IL-12 p40 mAbs were prepared at various concentrations ranging from 0.1 to 100 ng/ml in PBS containing 0.1% BSA; 50 ul of each antibody dilution was added to the coated ELISA plate and incubated for 1 hour at room temperature. Wells were washed 3 times with PBS containing 0.05% Tween-20. Recombinant purified mouse IL-12 (Preprotech) was diluted at 0.2 ug/ml in PBS containing 0.1% BSA; 50 ul/well was added and the plates incubated for 1 hour at room temperature. Wells were washed 3 times with PBS containing 0.05% Tween-20. Biotinylated anti-mouse IL-12 antibody (R&D # BAF419) was diluted at 0.2 ug/ml in PBS containing 0.1% BSA; 50 ul/well was added and the plates incubated for 1 hour at room temperature. Wells were washed 3 times with PBS containing 0.05% Tween-20. Streptavidin HRP (Pierce #21126, Rockland, Ill.) was diluted 1:20000 in PBS containing 0.1% BSA; 50 μL/well was added and the plates incubated for 1 hour at room temperature. Plates were washed 3 times with PBS containing 0.05% Tween-20. Fifty microliters of TMB solution was added to each well and incubated for 10 minutes at room temperature. […] Plates were read spectrophotmetrically at a wavelength of 450 nm.
(In an ELISA, binding on a coated surface is turned into a signal by an enzyme label.)

B1: murine anti-human IL-12p40 monoclonal antibody 8E1 (antibody, V domains shown)
VH: EVKLVESGGGLVQPGGSRKLSCAASGFTFSDYGMVWVRQAPGKGLEWVASISSGSSNIYYADTVKGRFTISRDDPNNTLFLQMRSLRSEDTAMYYCARNPYWGQGTTLTVSS
VL: DIVMTQSQKFMSTSVGDRVSVTCKASQNVGTNVAWYQQKPGQSPKGLIYSASHRYSGVPDRFAGSGSGTDFTLTISNVQSEDLAEYFCQQYNSYPLTFGGGTKLELKR
notes: Murine mAb; also called biotinylated 8E1
As for B1, in assay [1], the “Average IC50 (nM) Human IL-12, PHA blast IFN-γ assay” value stood at 0.19 nM. Besides, the “Average IC50 (nM) Cyno IL-12, PHA blast IFN-γ assay” value in assay [2] came out at 0.18 nM. For the same molecule, the IC50 (usually the midpoint of a concentration-inhibition curve) in assay [3] was determined as 2.56 µg/mL. Besides, the binding result in assay [4] is “no binding (tested: 0.1 to 100 ng/ml mAb)”.
